Reference: paper PMC10413271
Where “and” joins values, the source holds several entries; their conditions need not be identical. Equal values may be shown once.

Tests used:
[1] = target: NiV-soluble external domain glycoprotein G (NiV-Ge) expressed from Ad5-NiVGe (Nipah virus, Bangladesh strain (NiV-Bd)); assay: Western blot (ProteinSimple capillary system)
[2] = target: NiV full-length glycoprotein G (NiV-G) expressed from Ad5-NiVG (Nipah virus, Bangladesh strain (NiV-Bd)); assay: Western blot (ProteinSimple capillary system)

Substance | stoichiometry N [1] | stoichiometry N [2]
NiV-soluble external domain glycoprotein G (NiV-Ge) expressed from Ad5-NiVGe (domain or fragment) | 2 and 4 | –
NiV full-length glycoprotein G (NiV-G) expressed from Ad5-NiVG (natural protein) | – | 2
